Measurements published in doi:10.1101/2022.04.02.486822v1.
Changes are numbered by the printed parent chain. Names and notes keep the numbering of the source.

Tests used:
Test in all cases: purified protein
Conditions in all cases: 200 µM NADPH, 50 mM HEPES, pH 7.5, 22 °C
purified protein [1] = substrate: O=CC(=O)O; type: biochemical, Escherichia coli
purified protein [2] = substrate: O=C(O)CCC(=O)C(=O)O
purified protein [3] = substrate: O=C(O)CC(=O)C(=O)O
purified protein [4] = substrate: N=C(N)NCCCC(=O)C(=O)O
purified protein [5] = substrate: O=CC(=O)O

B1: EcGhrA (Escherichia coli K-12; W45F) (protein)
chain: MDIIFYHPTFDTQWWIEALRKAIPQARVRAWKSGDNDSADYALVFHPPVEMLAGRDLKAVFALGAGVDSILSKLQAHPEMLNPSVPLFRLEDTGMGEQMQEYAVSQVLHWFRRFDDYRIQQNSSHWQPLPEYHREDFTIGILGAGVLGSKVAQSLQTWRFPLRCWSRTRKSWPGVQSFAGREELSAFLSQCRVLINLLPNTPETVGIINQQLLEKLPDGAYLLNLARGVHVVEDDLLAALDSGKVKGAMLDVFNREPLPPESPLWQHPRVTITPHVAAITRPAEAVEYISRTIAQLEKGERVCGQVDRARGY
Km (purified protein [1]): 10.8 ± 6.1 mM | kcat (purified protein [1]): 120.0 ± 63.0 s⁻¹ | Km (purified protein [2]): 11.5 ± 0.8 mM | kcat (purified protein [2]): 0.26 ± 0.01 s⁻¹ | Km (purified protein [3]): 6.3 ± 0.2 mM | kcat (purified protein [3]): 1.8 ± 0.04 s⁻¹ | Km (purified protein [4]): 43.2 ± 8.4 mM | kcat (purified protein [4]): 4.0 ± 0.7 s⁻¹

B2: EcGhrA (Escherichia coli K-12) (protein)
chain: B1 chain with F45W
Km (purified protein [5]): 2.2 ± 1.7 mM | kcat (purified protein [5]): 40.0 ± 23.0 s⁻¹ | Km (purified protein [2]): 4.0 ± 0.4 mM | kcat (purified protein [2]): 0.30 ± 0.02 s⁻¹ | Km (purified protein [3]): 1.3 ± 0.2 mM | kcat (purified protein [3]): 1.9 ± 0.1 s⁻¹ | Km (purified protein [4]): 8.8 ± 0.8 mM | kcat (purified protein [4]): 6.6 ± 0.4 s⁻¹
